These results are taken from publication doi:10.1101/419051 (bioRxiv, 2018).

In the experiment the target is Rpt6 (human, UniProt P62195 1-406). The experiment is described as follows: cryo-EM structure.

B1: α3 subunit of the CP (natural protein)
chain: MSRRYDSRTTIFSPEGRLYQVEYAMEAIGHAGTCLGILANDGVLLAAERRNIHKLLDEVFFSEKIYKLNEDMACSVAGITSDANVLTNELRLIAQRYLLQYQEPIPCEQLVTALCDIKQAYTQFGGKRPFGVSLLYIGWDKHYGFQLYQSDPSGNYGGWKATCIGNNSAAAVSMLKQDYKEGEMTLKSALALAIKVLNKTMDVSKLSAEKVEIATLTRENGKTVIRVLKQKEVEQLIKKHEEEEAKAEREKKEKEQKEKDK
For the molecule B1, the binding result is listed as “binds”.

B2: α2 subunit of the CP (natural protein)
chain: MAERGYSFSLTTFSPSGKLVQIEYALAAVAGGAPSVGIKAANGVVLATEKKQKSILYDERSVHKVEPITKHIGLVYSGMGPDYRVLVHRARKLAQQYYLVYQEPIPTAQLVQRVASVMQEYTQSGGVRPFGVSLLICGWNEGRPYLFQSDPSGAYFAWKATAMGKNYVNGKTFLEKRYNEDLELEDAIHTAILTLKESFEGQMTEDNIEVGICNEAGFRRLTPTEVKDYLAAIA
For B2, the binding result is given as “binds”.
